Molecular target: the molecule itself
Assay: crystal structure; native hTP without ligand, space group P2(1), 0.1 M Na-acetate pH 5.2, 25% PEG 4000, 0.1 M ammonium acetate; 3.0 Å; four chains in the asymmetric unit

B1: Human thymidine phosphorylase (enzyme)
chain: APPAPGDFSGEGSQGLPDPSPEPKQLPELIRMKRDGGRLSEADIRGFVAAVVNGSAQGAQIGAMLMAIRLRGMDLEETSVLTQALAQSGQQLEWPEAWRQQLVDKHSTGGVGDKVSLVLAPALAACGCKVPMISGRGLGHTGGTLDKLESIPGFNVIQSPEQMQVLLDQAGCCIVGQSEQLVPADGILYAARDVTATVDSLPLITASILSKKLVEGLSALVVDVKFGGAAVFPNQEQARELAKTLVGVGASLGLRVAAALTAMDKPLGRCVGHALEVEEALLCMDGAGPPDLRDLVTTLGGALLWLSGHAGTQAQGAARVAAALDDGSALGRFERMLAAQGVDPGLARALCSGSPAERRQLLPRAREQEELLAPADGTVELVRALPLALVLHELGAGRSRAGEPLRLGVGAELLVDVGQRLRRGTPWLRVHRDGPALSGPQSRALQEALVLSDRAPFAAPSPFAELVLPPQQ
notes: Human thymidine phosphorylase (hTP, EC 2.4.2.4), cDNA clone from the Mammalian Gene Collection; residues 32-480 are seen in the crystals; Homodimer; the His tag is surmised from the Ni2+ column; Native crystal: residues 34-479 in all four copies (32, 33 and 480 in some chains); complex with 5-iodouracil: residues 35-480 in both chains; also called hTP; TP; source: E. coli …
- stoichiometry N: 2
